Among the data in PMC10265101 (2023) are Kd values, retold here.

Assay [1] concerns the target T1, recombinant PD-L1 protein (#10084-HNAH, Sino Biological) (UniProt Q9NZQ7 19-290). The assay is described as follows: SPR; heterogeneous ligand fit, KD2 (second site). On the technique in general: In SPR one partner is held on a chip, and binding of the other changes the refractive index at the surface.
Another assay concerns the target CD3ε. The assay is described as follows: SPR.
The target in assay [2] is T1, recombinant PD-L1 protein (#10084-HNAH, …). The assay is described as follows: SPR; heterogeneous ligand fit, KD1.

T1 sequence (Q9NZQ7 19-290): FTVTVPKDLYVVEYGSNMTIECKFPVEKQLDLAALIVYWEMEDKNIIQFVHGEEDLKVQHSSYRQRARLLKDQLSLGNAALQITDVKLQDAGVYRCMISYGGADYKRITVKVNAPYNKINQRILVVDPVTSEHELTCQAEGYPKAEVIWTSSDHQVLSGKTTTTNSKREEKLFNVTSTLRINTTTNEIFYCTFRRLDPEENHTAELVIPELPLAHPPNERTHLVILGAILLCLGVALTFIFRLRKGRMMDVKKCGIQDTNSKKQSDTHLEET

B1: recombinant Nb-BiTE (PD-L1/CD3ε Nb-BiTE) (bispecific antibody)
chain: HVQLVESGGGLVQPGGSLRLSCAASGFTFSSKAMSWVRQAPGKGLDWVSTINSGGGNTYYSDSVKGRFTISRDNAKNTLYLQLNSLKTEDTAMYYCSRCSDIYCGGQYTYRGQGTLVTVSSGGGGSGGGGSGGGGSEVQLVESGGGLVQPGGSLRLSCVASGFTFSSIGMSWVRQAPGKGLEWVSGLNPVGSHTGYADSVKGRFTISRDNAKNTLHLQLNSLKTEDTAMYYCQRGYTCSGDLCERGQGTQVTVSSGGGGSGGGGSGGGGSHVQLVESGGGSVQAGGSLRLSCTVSGVIFKNEYMGWFRQAPGKEREGVAAASPGGTITYYGDSVKGRFTISRDNAKNTVYLQMNRLKPEDTAMYYCALDPSTTSWSIIRHGPSLWRYSGRGTQVTVSS
As to B1, the results for the dissociation constant (Kd) (in assay [1]; with CD3ε; in assay [2]) were 0.00205 nM, 2.48 nM and 9.86 nM, respectively.

As a reminder, the Kd is the concentration at which binding is half-saturated.
